The values below are quoted from earlier work in publication doi:10.1101/2022.06.23.497301.

The data set addresses Asp96 (UniProt position 109, PLLLLDLALLV). The settings on record: resting (ground, closed) state of bacteriorhodopsin.

Regarding “Bacteriorhodopsin (Halobacterium salinarum)”, the pKa result is recorded as “∼12.0”.
